Two molecules from article PMC10968392, “Fluorometric and Colorimetric Method for SARS-CoV-2 Detection Using Designed Aptamer Display Particles” can be followed below.

This data set addresses SARS-CoV-2 spike protein extracellular domain (ECD), biotinylated (SARS-CoV-2, UniProt P0DTC2). As to the kind of experiment: bead-based flow cytometry. The following applies: protein: commercial; chain copies: 3.

B1: C1-AdP (SpS1-C1 displayed on magnetic particle) (ssDNA)
DNA: GAACATTGGCGTCCGTGAGTGAGACCATAGTCCAGCGAACTAAACCTACCCTAAAGGGCAAGGAAGACGGGCACTTCCTCAAACGCCCAA
modifications: 5' amino linkage to bead
Take B1: the binding result is “binds”.

B2: C4-AdP (SpS1-C4 displayed on magnetic particle) (ssDNA)
DNA: GAACATTGGCGTCCGTGAGCAGCTCGTGGTTGTTTGCTTGTATACTTTTGTGGTTTATCTTGTTTCTGATCACTTCCTCAAACGCCCAA
modifications: 5' amino linkage to bead
On to B2, for which the binding result was “binds”.
